The nature of this data set: label from the status in PepcDB records.

Regarding “MKKTLLAIVAVSALSACRQAEEGPPPLPRQISDRSVGHYCSMNLTEHNGPKAQIFLNGKPDQPVWFSTIKQMFGYTKLPEEPKGIRVIYVTDMGNVTDWTNPNADTEWMDAKKAFYVIDSGFIGGMGAEDALPFGNKEQAEKFAKDKGGKVVGFDDMPDTYIFK”, the protein production entry was “failed”.

In the case of “MKKVFITTGTEHYLRQLMENYIGENVTLLQNFSQSLLYQESTGEKLFQEGKEYRVLQSSGSLKGFGIVVFEYIQLRDEEIPIFLQMYQHASLHFSETPGLQSTKLTKAMNTNQFLIVSFWDSEVFFQEWKKTPLHKEITSIMKKNNTQVGFSHEDIYHYPEFSHDAK”, the protein production entry is given as “not failed”.

On to “MKKWIKIVLYSLLAILIVGSITFLSWSQFTYKPTKEALSLVDDKKDEDYIVFGEKDAKIGVIFYQGAKVEAEAYSYLGEALAKDGHFVVMPKLPLNLALFGINEVDSVIEQYPEVQKWYVAGHSMGGAMISRYAFQHEEKVDGIIFLGSYPADDFSTKSIPMLSIYGEVDALATVEKIENNKKFMSKNTTMHMIKGGNHAHFGMYGEQKGDNASLITAKAQRDETVKVIEQWLLEQ”, for which the protein production entry is on record as “failed”.

With “MKKWLLAAGLGLALATSAQAADKIAIVNMGSLFQQVAQKTGVSNTLENEFKGRASELQRMETDLQAKMKKLQSMKAGSDRTKLEKDVMAQRQTFAQKAQAFEQDRARRSNEERGKLVTRIQTAVKSVANSQDIDLVVDANAVAYNSSDVKDITADVLKQVK”, the protein production entry was “not failed”.

As to “MKKWRFLGIDDSFDDRKCCVVGCVTCGGYVEGFLYTEIDIDGLDATDKLISMVRRSKFREQIKCIFLPGITLGGFNLVDIQRVYRETKIPVVVVMRRKPDMEEFDSAMRNLENYELRRKIVEVAGEIHRIGDIYIQTAGLTPSEAEKLVKASLIKGNMPEPVRISHLVASAIIHGESRGKA”, the protein production result is listed as “not failed”.

For the sequence “MKLASGFLVLWLSLGGGLAQSDTSPDTEESYSDWGLRHLRGSFESVNSYFDSFLELLGGKNGVCQYRCRYGKAPMPRPGYKPQEPNGCGSYFLGLKVPESMDLGIPAMTKCCNQLDVCYDTCGANKYRCDAKFRWCLHSICSDLKRSLGFVSKVEAACDSLVDTVFNTVWTLGCRPFMNSQRAACICAEEEKEEL”, the protein production result is recorded as “failed”.

For “MKLAYWMYAGPAHIGTLRVATSFKNVHAIMHAPLGDDYFNVMRSMLSRERDFTPVTTSVVDRHVLARGSQEKVVDNITRKDAEERPDLIVLTPTCTSSILQEDLENFVERAQLEAKGDVLLADVNHYRVNELQAGDRTLHQIVQYYIEKARKKGELPEGKTAKPSVNIIGISTLGFHNNHDCTELKRLMADLGIEVNAVIPEGASVHELKNLPRAWFNLVPYRELGLMTANYLEKEFGTPCIDIVPMGVVETARCIRKIQEVINAQGADVNYEDYINEQTLYVSQAAWFSRSIDCQNLTGKKAVVFGDNTHAAALTKILSREMGIHVVWAGTYCKYDADWFREQVSEYCDEVLITEDHGEIGDAIARVEPSAIFGTQMERHVGKRLDIPCGVIAAPIHVQNFPIGYKPFLGYEGTNQITDLIYNSFTLGMEDHLLEIFGGHDTKEVITKGISAGSDLSWTKDGLAELNKIPGFVRGKVKRNTEKFARDRGFKDISAEVLYAAKEAVGA”, the protein production entry is listed as “failed”.

For the sequence “MKLCFNEATTLENSNLKLDLELCEKHGYDYIEIRTMDKLPEYLKDHSLDDLAEYFQTHHIKPLALNALVFFNNRDEKGHNEIITEFKGMMETCKTLGVKYVVAVPLVTEQKIVKEEIKKSSVDVLTELSDIAEPYGVKIALEFVGHPQCTVNTFEQAYEIVNTVNRDNVGLVLDSFHFHAMGSNIESLKQADGKKIFIYHIDDTEDFPIGFLTDEDRVWPGQGAIDLDAHLSALKEIGFSDVVSVELFRPEYYKLTAEEAIQTAKKTTVDVVSKYFSM”, the protein production result is “not failed”.

“MKLEERIKSKITILVFIAILMYFLLNYGNDVRGIINNIYSIFFPFILGGCIAFILNIPVTFFSKKLLNCKIKFIGKVVRKYNISISIVASCILIIGIFALISAIIIPNIIQTIKILPNAFDNSITAFQKFVNENSWMSKNVTSLVNNLNIDWNGILNKVKITIITGASSVFMSTLGAATTFASTAIEFVLSFIFSIYILAQKNKLGTQVKMVLYAFFKKQKVDSALEVLKLTSNTFSNFITGQCTVSIILGVMFFIVMTILKLPYAIEVSIIIAFFSVIPMIGSIIGFVLSVLLLLIFNPIKAGVFVFVFLAIKQVEDNFIYPKIVGNSVGLPSILVLVAITLGGKVLGVPGMIMSIPLFSVAYVLLRKEVYTRLEKKALKVE”: the protein production entry is “failed”.

For “MKLETIDYRAADSAKRFVESLRETGFGVLSNHPIDKELVERIYTEWQAFFNSEAKNEFMFNRETHDGFFPASISETAKGHTVKDIKEYYHVYPWGRIPDSLRANILAYYEKANTLASELLEWIETYSPDEIKAKFSIPLPEMIANSHKTLLRILHYPPMTGDEEMGAIRAAAHEDINLITVLPTANEPGLQVKAKDGSWLDVPSDFGNIIINIGDMLQEASDGYFPSTSHRVINPEGTDKTKSRISLPLFLHPHPSVVLSERYTADSYLMERLRELGVL”, the protein production result was “not failed”.

For the sequence “MKLHTSDLLIICAYLIAMIVIGLILKKRAAQNMDSYFLGGKSLPFYMLGLSNASGMFDITGTMLMVYWAFAYGFKSLWIPWLWPVFNQIFLMVYLSVWLRRSNVLTGAEWIKTRFGKGKGATLSHTIVVVFALLSVLGFLSYGFIGIGKFMEIFIPWEVISPYIPFTVSPEYVPHVYGIFFTAIATFYVMLGGMLSIVWTDVVQFLIMTVAGIVIVVIGMQMVAPDMIHSFVPAGWDSPFFGWTLDIDWSSRMSLLTERMANEPYSLIGIFVMMALLKGIFMSMAGPAPNYDMQKILSCKSPKEAAMMSGSVSVVLLIPRYLMIMGFALLAIYFFKEDGGLTQMEVTRTDFETILPHLITRYVPAGFAGLLLAGLLAAFMSTFASTVNAAPAYIVNDIYLKYINPKASVKTQIRSSYVISVAVVVVSTVIGFFLKDINEIFQWIVGALFGGYIAANVLKWHWWRFNGEGYFWGMTAGVVAAIVMKFTVPDAWVLYFFPVLFGVSLIGCIIGTYSAPATDEETLINFYVNVRPWGCWKPIQEKAIARYPHIQANKNFKRDAFNVAIGIIWQCTLTIIPMYLVVREQLGLWSSIALLLITTLILRKTWYKPLCKEEARYNEEMKQIR”, the protein production entry was “failed”.

Turning to “MKLIAIDLDGTLLNSKHQVSLENENALRQAQRDGIEVVVSTGRAHFDVMSIFEPLGIKTWVISANGAVIHDPEGRLYHHETIDKKRAYDILSWLESENYYYEVFTGSAIYTPQNGRELLDVELDRFRSANPEADLSVLKQAAEVQYSQSGFAYINSFQELFEADEPIDFYNILGFSFFKEKLEAGWKRYEHAEDLTLVSSAEHNFELSSRKASKGQALKRLAKQLNIPLEETAAVGDSLNDKSMLEAAGKGVAMGNAREDIKSIADAVTLTNDEHGVAHMMKHLL”, the protein production entry is reported as “not failed”.

For “MKLKGVDNKILSNIFSLLSVQGALYIIPLITLPYLVRTLGVENYGVFGFSLAIVSYMSLIVDYGFNITATKTGAEIRYDKNKLSKLFFEILYSKLFMFIICSLSSILFSFFVENNIFNKDIIFVLMFTVFSQVIFPIWFFQAIEELKLVATLNFISKSLSVPLIFILINDEKDLIKLAVIHAITTIIPAIYSVYYIHIRKLVFFYKPSLNSIVSQIKNGWHIFLSGISISFYSTIVTVFLGIFSGATETGYFVAADRLRKAVQGISGPISQSFYPRINSLINTNKKSAINLIKVLYKIQFIVTFILSSLLFIFSEEIVEVLYGNGFVQSIVILKVLSYVPFFVSMSNASGICVIVSFGFNRLFSKIMMFSGGVGVALSFLLINSYGAIGSGLSILISEFIIAIIMIYFVIKLKLLKQ”, the protein production entry is listed as “failed”.

For “MKLKNILIVVDNIEESIHFYNELFGLNVISRQEGNVIMSEGLVLQDAGIWKESMQIQTIPYNNMTELYFEDNDIEGVVKKLESGRYEVRYATALTELDGGQKLVRFYDQSGNLIEVRTPWDKFVNRE”, the protein production result is “failed”.

Turning to “MKLKWWQRLLPRSAFSQTVLLIGCLLLINQLVSYVTVAVYVLKPSYQQINQLIARQINLLFVDGIDIGREHLTIVDALNAKVRDDGMKVYNQQQAREAGIEQATYYGFWSSQMTEYLGGDAEVRVTHGRVLQVWIRPPQAPSVWIKVPLIGQNVSDLSPLTLYLMVIGALSVAGGWWFARQQNRPLRRLQKAAISVSRGEFPDPLPLKGSSELVEVTNAFNQMAHSMKQLEQDRALLMAGISHDLRTPLTRIRLASEMMVEDDQYLKDGIVNDIEDMDAIISQFIAYIRQDQEASREPGQINKLIQDIAQAEANRDGEIELALADCPEALFQGLAIKRVLSNLVENAFRYGSGWVRISSQFDGKRIGFSVEDNGPGIDESQIPTLFQPFTQGDIARGSVGSGLGLAIIKRIIDRHQGQITLSNRAAGGLKAQVWLPRE”, the protein production result was “failed”.

(Values after a protein production outcome set (Wang et al. 2014).)
